Literature values as cited in publication PMC4858162.

Target: DNA polymerase III beta sliding clamp (Escherichia coli) (UniProt P0A988)

Kd: < 0.06 nM
Substance: DNA polymerase III beta sliding clamp (from UniProt P0A988)
